The record followed here is patent publication US20150225457A1.

The target in this experiment is mouse CEACAM1 on SEB-responsive T cells (mouse), P31809. In words: cell-based or functional assay.

B1: mouse CEACAM1 N-domain Fc fusion protein, P31809 35-142 (Fc fusion, UniProt P31809 35-142, looked up, not shown: a dimerising Fc or GST)
chain: EVTIEAVPPQVAEDNNVLLLVHNLPLALGAFAWYKGNTTAIDKEIARFVPNSNMNFTGQAYSGREIIYSNGSLLFQMITMKDMGVYTLDMTDENYRRTQATVRFHVHP
B1 gave a TIM3 up-regulation on SEB-responsive T-cells after in vitro re-stimulation (% Mean Fluorescence) of 29.
